pKd: −log10 of the molar value.
What was measured:
Test in all cases: SPR
[1] = target: bovine ACE2 extracellular domain (residues 1-740) fused with the Fc domain of mouse IgG (bovine) (UniProt Q58DD0)
[2] = target: raccoon dog ACE2 extracellular domain (residues 1-740) fused with the Fc domain of mouse IgG (raccoon dog) (UniProt B4XEP4)
[3] = target: wild Bactrian camel ACE2 extracellular domain (residues 1-740) fused with the Fc domain of mouse IgG (wild Bactrian camel)
[4] = target: goat ACE2 extracellular domain (residues 1-740) fused with the Fc domain of mouse IgG (goat)
[5] = target: big-eared horseshoe bat ACE2 extracellular domain (residues 1-740) fused with the Fc domain of mouse IgG (big-eared horseshoe bat)
[6] = target: alpaca ACE2 extracellular domain (residues 1-740) fused with the Fc domain of mouse IgG (alpaca)
[7] = target: little brown bat ACE2 extracellular domain (residues 1-740) fused with the Fc domain of mouse IgG (little brown bat) (UniProt G1PXH7)
[8] = target: pig ACE2 extracellular domain (residues 1-740) fused with the Fc domain of mouse IgG (pig) (UniProt K7GLM4)
[9] = target: fox ACE2 extracellular domain (residues 1-740) fused with the Fc domain of mouse IgG (fox)
[10] = target: mink ACE2 extracellular domain (residues 1-740) fused with the Fc domain of mouse IgG (mink)
[11] = target: sheep ACE2 extracellular domain (residues 1-740) fused with the Fc domain of mouse IgG (sheep)
[12] = target: monkey ACE2 extracellular domain (residues 1-740) fused with the Fc domain of mouse IgG (monkey) (UniProt F7AH40)
[13] = target: dog ACE2 extracellular domain (residues 1-740) fused with the Fc domain of mouse IgG (dog)
[14] = target: cat ACE2 extracellular domain (residues 1-740) fused with the Fc domain of mouse IgG (cat) (UniProt Q56H28)
[15] = target: rabbit ACE2 extracellular domain (residues 1-740) fused with the Fc domain of mouse IgG (rabbit) (UniProt G1TEF4)
[16] = target: fulvous fruit bat ACE2 extracellular domain (residues 1-740) fused with the Fc domain of mouse IgG (fulvous fruit bat)
[17] = target: horse ACE2 extracellular domain (residues 1-740) fused with the Fc domain of mouse IgG (horse) (UniProt F6V9L3)

Substance: SARS-CoV-2 prototype RBD (residues 319-541) (from UniProt P0DTC2 319-541) (domain or fragment)
- pKd [1]: 6.74
- pKd [2]: 7.10
- pKd [3]: 6.99
- pKd [4]: 6.67
- pKd [5]: 6.17
- pKd [6]: 4.93
- pKd [7]: 6.89
- pKd [8]: 6.86
- pKd [9]: 7.25
- pKd [10]: 6.52
- pKd [11]: 6.76
- pKd [12]: 7.66
- pKd [13]: 7.00
- pKd [14]: 7.00
- pKd [15]: 7.32
- pKd [16]: 6.81
- pKd [17]: 6.66

From publication PMC9274624
